Results taken from paper PMC10897201.

Experiments:
[1] = target: surface Spycatcher fused to the hinge of hCD52 (human); assay: flow cytometry on cells; titration of purified Spytag-mClover3 on CHO-K1 cells transduced with surface Spycatcher; covalent coupling read by mClover3 fluorescence
CD2 (human) = CD2 (human) (UniProt P06729)
Sequence of UniProt P06729 (P06729 25-351): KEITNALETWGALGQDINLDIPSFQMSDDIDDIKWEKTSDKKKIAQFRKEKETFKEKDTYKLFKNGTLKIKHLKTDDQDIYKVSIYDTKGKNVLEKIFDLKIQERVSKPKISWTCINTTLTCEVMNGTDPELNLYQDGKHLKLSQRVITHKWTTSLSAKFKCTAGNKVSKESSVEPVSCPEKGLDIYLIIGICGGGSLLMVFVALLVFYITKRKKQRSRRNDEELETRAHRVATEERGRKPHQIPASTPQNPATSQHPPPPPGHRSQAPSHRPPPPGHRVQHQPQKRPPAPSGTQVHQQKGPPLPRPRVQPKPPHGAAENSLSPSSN

Row | fold improvement of antigen sensitivity, 4-1BB, 1G4 TCR T cells, with the CD2 ligand against pMHC alone (CD2 (human)) | fold improvement of antigen sensitivity, 4-1BB, D52N CAR T cells, with the CD2 ligand against pMHC alone (CD2 (human)) | fold improvement of antigen sensitivity, IL-2, 1G4 TCR T cells, with the CD2 ligand against pMHC alone (CD2 (human)) | fold improvement of antigen sensitivity, IL-2, D52N CAR T cells, with the CD2 ligand against pMHC alone (CD2 (human)) | Substance | concentration at saturation [1]
1 | – | – | – | – | purified mClover3 fused to Spytag | 1 µM
2 | 230 fold | 11 fold | 46 fold | 3.9 fold | full extracellular domain of CD58 fused to a C-terminal Spytag and Histag (from UniProt P19256 29-215) (ligand) | –
